Assay results from patent US6346249 (LUDWIG INSTITUTE FOR CANCER RESEARCH, dated 2002).
Residue numbers refer to the chain shown, from its start.

T1: recombinant human A33 antigen (human, UniProt Q99795 22-233, limits assumed)
T1 construct: also called human antigen A33; immobilized recombinant human A33
T1 sequence (looked up): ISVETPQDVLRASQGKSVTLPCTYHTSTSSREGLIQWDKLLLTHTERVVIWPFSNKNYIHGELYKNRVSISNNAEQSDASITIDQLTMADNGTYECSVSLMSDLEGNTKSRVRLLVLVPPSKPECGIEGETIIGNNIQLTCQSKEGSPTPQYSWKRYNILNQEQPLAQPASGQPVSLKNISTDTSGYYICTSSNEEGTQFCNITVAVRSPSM

B1: rabbit Fab 1 (rabbit VH1, VL1; chimeric rabbit/human Fab) (Fab, V domains shown)
VH: QQQVMESGGGLVTLGGSLTLTCKASGIDFSNNGISWVRQAPGKGLEWILYIYPDYGSTDYASWVNGRFTISLDNAQNTVFLQMTSLTAADTATYFCARDRGAYAGSRGTRLDLWGQGTLVTVSS
VL: EFDMTQTPPSLSASVGETVRIRCLASEFLFNGVSWYQQKPGKPPKFLISGASNLESGVPPRFSGSGSGTDYTLTIGGVQAEDVATYYCLGGYSGSSGLTFGAGTNVEIK
notes: Soluble Fab from E. coli; also called rabbit 1; rabbit clone 1
B2: humanized Fab B (human VLB and human VHB) (Fab, V domains shown)
VH: EVQVMESGGGLVKPGGSLRLSCAASGIGFSHYGISWVRQAPGKGLEWVSYIYPNYGSVDYASSVNGRFTISLDNAQNSLYLQMNSLRAEDTAVYFCARDRGYYSGSRGTRLDLWGQGTLVTVSS
VL: ELQMTQSPSSLSASVGDRVTITCLASEFLFNGVSWYQQKPGKVPKFLIYGASNLESGVPSRFSGSGSGTDFTLTISSLQPEDVATYYCLGGYSGSSGLTFGGGTKVEIK
B3: humanized Fab D (human VLD and human VHD) (Fab, V domains shown)
VH: B2 VH with G28D
VL: B2 VL with F71Y
B4: humanized Fab C (human VLC and human VHC) (Fab, V domains shown)
VH: B2 VH with G28D, F95Y
VL: B2 VL with V43A
B5: humanized Fab E (human VLE and human VHE) (Fab, V domains shown)
VH: B2 VH with I27F, G28T, L72F, L79V, F95Y
VL: B2 VL with V43A, F46L, F71Y
B6: humanized Fab A (human VLA and human VHA) (Fab, V domains shown)
VH: B2 VH with G28D, L72F, F95Y
VL: B2 VL with F71Y
B7: humanized Fab F (human VLF and human VHF) (Fab, V domains shown)
VH: B2 VH with F95Y
VL: B2 VL with V43A

Molecular target: T1, recombinant human A33 antigen
Test: SPR (Biacore), recombinant human A33 immobilized on CM5 chip, Fab injected at 75-200 nM
Method: (§1) The binding strength was determined by surface plasmon resonance in accordance with Rader, et al., Proc. Natl. Acad. Sci USA 95(15): 8910–8915 (1998), incorporated by reference. Briefly, the determination of association ($kon$) and dissociation ($koff$) rate constants for binding of rabbit and humanized Fab to recombinant human A33 antigen was performed on a Biacore instrument (Biacore AB, Uppsala, Sweden). A CM5 sensor chip (Biacore AB) was activated for immobilization with Nhydroxysuccinimide and N-ethyl-N'-(3-dimethylaminopropyl)carbodiimide according to standard methods. Recombinant human A33 antigen was coupled at a low density to the surface by injection of 30 µl to 40 µl of a 1 ng/µl sample in 10 mM sodium acetate (pH 3.5). Approximately 500 resonance units were immobilized. Subsequently, the sensor chip was deactivated with 1 M ethanolamine hydrochloride (pH 8.5). Binding of Fab to immobilized A33 antigen was studied by injection of Fab at 5 different concentrations ranging from 75 nM to 200 nM. PBS was used as the running buffer. The sensor chip was regenerated with 20 mM HCl and remained active for at least 50 measurements. The $kon$ and $koff$ values were calculated using Biacore AB evaluation software. The equilibrium dissociation constant K_d was calculated from $koff/kon$.
Figure 6: FIG. 6 depicts representative Biacore sensorgrams obtained for the binding of rabbit Fab 1 to immobilized human A33 antigen. For association, Fab were injected at 5 different concentrations (200 nM, 150 nM, 125 nM, 100 nM, 75 nM, top to bottom) between t=125 and t=370 seconds, using a flow rate of 5 µl/minute. For dissociation, the flow rate was increased to 50 µl/minute resonance units (RU).

Binder	koff	kon
B1	0.00012 s⁻¹	307000 M⁻¹ s⁻¹
B2	0.00061 s⁻¹	352000 M⁻¹ s⁻¹
B3	0.0019 s⁻¹	65000 M⁻¹ s⁻¹
B4	0.00197 s⁻¹	109000 M⁻¹ s⁻¹
B5	0.0005 s⁻¹	65000 M⁻¹ s⁻¹
B6	0.00059 s⁻¹	105000 M⁻¹ s⁻¹
B7	0.00068 s⁻¹	192000 M⁻¹ s⁻¹

Molecular target: T1, recombinant human A33 antigen
Test: SPR (Biacore), recombinant human A33 immobilized on CM5 chip; Kd calculated from koff/kon
Method: as §1
Association ($kon$) and dissociation ($koff$) rate constant were determined using surface plasmon resonance. Human antigen A33 was immobilized on the sensor chip. The dissociation constant (K_d) was calculated from […].

Binder	Kd
B1	0.39 nM
B2	1.7 nM
B3	29.2 nM
B4	18.1 nM
B5	7.7 nM
B6	5.6 nM
B7	3.5 nM
